From publication PMC6954390, “Negative cooperativity between Gemin2 and RNA provides insights into RNA selection and the SMN complex's release in snRNP assembly” (Nucleic Acids Research, 2019) come the findings set out here.

In one experiment the target is T1, Gemin2 (full-length) (human, UniProt O14893 1-280).
T1 construct: Gemin2, human, full length; source: coexpressed with SMN_(Ge2BD) (pCDF-HT-Gemin2); not shown: His6, N-terminal, cleaved
T1 sequence (looked up): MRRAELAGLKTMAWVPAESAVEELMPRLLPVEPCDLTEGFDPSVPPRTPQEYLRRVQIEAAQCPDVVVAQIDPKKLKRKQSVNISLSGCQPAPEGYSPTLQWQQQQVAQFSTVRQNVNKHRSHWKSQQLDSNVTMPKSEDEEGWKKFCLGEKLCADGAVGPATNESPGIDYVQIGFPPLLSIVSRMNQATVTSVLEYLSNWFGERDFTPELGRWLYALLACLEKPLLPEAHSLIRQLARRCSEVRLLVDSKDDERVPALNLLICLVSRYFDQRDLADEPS
Briefly: crystal structure; Complexes A, B and C; hanging-drop vapor diffusion at 20°C, 1-6% PEG8000, 100 mM Tris-HCl pH 7.5-8.2; solved by molecular replacement with PDB 3S6N. The conditions noted are these: both partners purified.

A further experiment addresses T2, Gemin2ΔN39 (human, UniProt O14893 40-280).
T2 construct: Gemin2, human, N-terminal 39 residues deleted (residues 40-280 left); also called Gemin2 residues 40–280; source: coexpressed with SMN_(Ge2BD) (pCDF-HT-Gemin2ΔN39); not shown: His6, N-terminal, cleaved
T2 sequence (looked up): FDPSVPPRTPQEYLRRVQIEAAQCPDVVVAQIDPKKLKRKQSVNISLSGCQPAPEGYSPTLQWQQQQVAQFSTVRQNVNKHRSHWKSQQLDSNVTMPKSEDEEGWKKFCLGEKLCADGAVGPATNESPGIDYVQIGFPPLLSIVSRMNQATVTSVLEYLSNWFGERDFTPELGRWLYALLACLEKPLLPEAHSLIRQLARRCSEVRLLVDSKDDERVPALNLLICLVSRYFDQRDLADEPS
Described as above. The note with it: both partners purified.

B1: SMN_(Ge2BD), SMN residues 26–62 (domain or fragment, human, UniProt Q16637 26-62, looked up)
chain: GQSDDSDIWDDTALIKAYDKAVASFKHALKNGDICET
notes: also called SMN(26-62); SMN (26–62) peptide; source: coexpressed with Gemin2 or Gemin2ΔN39 (pET21-HMT-SMN_(Ge2BD)); not shown: His6, N-terminal, cleaved; MBP, N-terminal, cleaved
Turning to B1, the binding result with Gemin2 (full-length) and with Gemin2ΔN39 was “binds” in each case.
